In the assay the target is EcDsbB (Escherichia coli DsbB) (E. coli (endogenous in E. coli JCB817)) (UniProt P0A6M2).

The text below walks through data of publication PMC8708908.

UniProt P0A6M2, sequence (P0A6M2 whole entry): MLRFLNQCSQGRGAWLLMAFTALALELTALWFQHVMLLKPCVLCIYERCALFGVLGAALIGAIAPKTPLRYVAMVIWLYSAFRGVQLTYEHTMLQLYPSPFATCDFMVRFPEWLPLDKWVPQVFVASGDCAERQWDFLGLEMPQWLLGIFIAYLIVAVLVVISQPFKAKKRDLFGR

The substance “CjDsbA2 made in E. coli with the E. coli pelB signal sequence (ss'pelB-cjdsbA2 in pMPM-A6, pUWM1523) (enzyme)” gave a redox state of CjDsbA2 (AMS labelling, Western blot) in E. coli JCB817 (ΔdsbA, with EcDsbB); in JCB818 (ΔdsbAΔdsbB) mostly in the reduced form (87%) (% oxidized form) of 33.
